# Assay results published in US5679770A, “Polypeptide, DNA fragment encoding the same, drug composition containing the same and process for producing the same” (Mochida Pharmaceutical Co., Ltd., priority 1991, dated 1997).
# Residue numbers refer to the chain shown, from its start. In names and notes the source's numbering stands.
# T1: Human neutrophil elastase (Homo sapiens, UniProt P08246)
# T1 construct: purchased CALBIOCHEM
# T1 sequence (P08246 30-267): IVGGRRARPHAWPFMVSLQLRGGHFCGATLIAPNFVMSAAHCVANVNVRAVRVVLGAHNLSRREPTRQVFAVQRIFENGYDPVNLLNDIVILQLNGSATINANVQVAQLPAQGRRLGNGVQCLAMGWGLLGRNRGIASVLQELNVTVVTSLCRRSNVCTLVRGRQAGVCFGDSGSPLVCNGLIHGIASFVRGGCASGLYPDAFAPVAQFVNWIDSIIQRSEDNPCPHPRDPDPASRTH
# B1: R11Q/Q19K/Y46D: formula 1 sequence with Gln for position 7 Arg, Lys for position 15 Gln, Asp for position 42 Tyr; SEQ. I.D. NO. 37 (protein)
# chain: AACNLPIVQGPCRAFIKLWAFDAVKGKCVLFPYGGCQGNGNKFDSEKECREYCGVPGDGDEELLRFSN
# B2: R11N/Q19K/Y46D: formula 1 sequence with Asn for position 7 Arg, Lys for position 15 Gln, Asp for position 42 Tyr; SEQ. I.D. NO. 41 (protein)
# chain: B1 chain with Q9N
# B3: R11D/Q19K/Y46D: formula 1 sequence with Asp for position 7 Arg, Lys for position 15 Gln, Asp for position 42 Tyr; SEQ. I.D. NO. 38 (protein)
# chain: B1 chain with Q9D
# B4: R11L/Q19K/Y46D: formula 1 sequence with Leu for position 7 Arg, Lys for position 15 Gln, Asp for position 42 Tyr; SEQ. I.D. NO. 39 (protein)
# chain: B1 chain with Q9L
# B5: R11A/Q19K/Y46D: formula 1 sequence with Ala for position 7 Arg, Lys for position 15 Gln, Asp for position 42 Tyr; SEQ. I.D. NO. 43 (protein)
# chain: B1 chain with Q9A
# B6: R11E/Q19K/Y46E: formula 1 sequence with Glu for position 7 Arg, Lys for position 15 Gln, Glu for position 42 Tyr; SEQ. I.D. NO. 40 (protein)
# chain: B1 chain with Q9E, D44E
# B7: R11S/Q19K/Y46D: formula 1 sequence with Ser for position 7 Arg, Lys for position 15 Gln, Asp for position 42 Tyr; SEQ. I.D. NO. 42 (protein)
# chain: B1 chain with Q9S
# Biological target: T2, human FXa (Homo sapiens, UniProt P00742)
# T2 construct: purchased American Diagnostica Inc
# Assay: FXa-inhibiting activity (synthetic substrate S-2222)
# Format: biochemical
# Conditions: relative to control AN68; concentration expressed as bovine trypsin-inhibiting activity
# Protocol: The purified polypeptide of the present invention was dissolved in 100 μl of distilled water. Polypeptide concentration of this solution was determined based on its bovine trypsin-inhibiting activity measured in accordance with the above procedure (1) using the aforementioned UTI as a standard. The thus prepared solution was then diluted to various concentration levels with 0.1% BSA/150 mM NaCl/5 mM CaCl2 /50 mM Tris-HCl buffer (pH 8.3) for use in the activity measurement. Separately from this, a polypeptide TN70 (cf. Japanese Patent Application No. 3-325220) and polypeptide AN68 were purified respectively in accordance with the procedure of Example 2(4) from a culture supernatant of E. coli JE5505(pM552) (deposit No., FERM BP-3561) and E. coli JE5505(pM594) obtained by transforming E. coli JE5505 with the aforementioned plasmid pM594 obtained in Example 4. The thus purified polypeptide TN70 and AN68 were diluted to various concentration levels to be used as control solutions.
# Using a synthetic compound S-2222 (Daiichi Pure Chemicals Co., Ltd.) as a substrate, FXa-inhibiting activities in the thus prepared test sample solution and control solution were measured in accordance with the method of Ohno et al. (Ohno H. et al., Thromb. Res., vol.19, pp.579-588, 1980) as follows. First, human FXa (American Diagnostica Inc.) was dissolved in distilled water to a final concentration of 10 PEU/ml and the solution was further diluted with the aforementioned 0.1% BSA/150 mM NaCl/5 mM CaCl2 /50 mM Tris-HCl buffer (pH 8.3) to prepare 0.1 PEU/ml of FXa solution. Separately from this, a 4 mM solution of S-2222 was prepared by dissolving it in distilled water and the solution was further diluted with the 0.1% BSA/150 mM NaCl/5 mM CaCl2 /50 mM Tris-HCl buffer (pH 8.3) to obtain a 2 mM solution of S-2222.
# Next, 25 μl of the test sample or control solution was mixed with 100 μl of the 0.1% BSA/150 mM NaCl/5 mM CaCl2 /50 mM Tris-HCl buffer (pH 8.3) and 25 μl of the FXa solution. After incubating statically at 37° C. for 10 minutes, 100 μl of the S-2222 solution was added to start the reaction. The reaction was carried out at 37° C. for 30 minutes and then stopped by adding 50 μl of 50% acetic acid solution to the reaction mixture. Thereafter, absorbance at a wavelength of 405 nm was measured using a spectrophotometer. In this instance, in order to eliminate absorbancy of various contents in the reaction mixture other than the reaction product, a blank solution was prepared by mixing 25 μl of the FXa solution with 50 μl of 50% acetic acid and then with 25 μl of each test sample or the control solution, 100 μl of the 0.1% BSA/150 mM NaCl/5 mM CaCl2 /50 mM Tris-HCl buffer (pH 8.3) and with 100 μl of the S-2222 solution.
# The results are shown in FIG. 45 to FIG. 53 and FIG. 66. In these figures, polypeptide concentration in the reaction solution was expressed as its bovine trypsin-inhibiting activity. Also, residual human FXa activity was expressed by percentage based on the absorbance of a control reaction mixture in which 25 μl of the 0.1% BSA/150 mM NaCl/5 mM CaCl2 /50 mM Tris-HCl buffer (pH 8.3) was used instead of the test sample.
# T2 sequence (P00742 235-488 limits assumed): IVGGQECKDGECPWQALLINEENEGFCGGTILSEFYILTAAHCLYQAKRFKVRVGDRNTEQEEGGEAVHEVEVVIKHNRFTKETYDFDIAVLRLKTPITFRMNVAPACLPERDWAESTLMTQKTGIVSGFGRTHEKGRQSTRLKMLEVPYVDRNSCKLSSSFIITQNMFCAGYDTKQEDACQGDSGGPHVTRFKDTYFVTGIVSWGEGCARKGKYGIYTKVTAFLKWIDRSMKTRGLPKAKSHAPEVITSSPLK
# T2 sequence (P00742 41-179 partner limits assumed): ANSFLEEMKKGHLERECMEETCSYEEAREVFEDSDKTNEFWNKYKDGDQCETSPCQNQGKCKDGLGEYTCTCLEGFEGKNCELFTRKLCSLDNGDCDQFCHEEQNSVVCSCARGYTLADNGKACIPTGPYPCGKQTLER
row,"FXa-inhibiting activity, times higher than that of polypeptide AN68",Molecule
1,about twenty,B1
2,about 10 times,B2
3,about 5 times,B3
4,about 16 times,B4
5,about 9 times,B5
6,about 13 times,B6
7,about 8 times,B7

# Biological target: T1, Human neutrophil elastase
# Assay: Human elastase-inhibiting activity (substrate STANA)
# Format: biochemical
# Conditions: relative to Q19K/Y46D
# Protocol: The purified polypeptide of the present invention was dissolved in 100 μl of distilled water. The concentration of this solution was determined based on its bovine trypsin-inhibiting activity using UTI as a standard. The solution was then diluted to various concentration levels with 0.1% BSA/27 mM CaCl2 /133 mM Tris-HCl buffer (pH 7.5) for use in the activity measurement. The aforementioned AN68 was also diluted in the same manner for use as a control. Human elastase-inhibiting activities in the test samples and the control were measured in accordance with the method of Ogawa et al. (Ogawa, M. et al., Res. Commun. Chem. Pathol. Pharmacol., vol.55, pp.271-274, 1987) using a synthetic compound STANA (Peptide Institute Inc.) as a substrate.
# Human neutrophil elastase (CALBIOCHEM) was dissolved in 27 mM CaCl2 /133 mM Tris-HCl buffer (pH 7.5) to a concentration of 100 μg/ml and the solution was further diluted with 0.1% BSA/27 mM CaCl2 /133 mM Tris-HCl buffer (pH 7.5) to prepare a 4 μg/ml elastase solution. 100 mM STANA solution was prepared by dissolving it in N-methyl-2-pyrrolidone and the solution was further diluted with 0.1% BSA/27 mM CaCl2 /133 mM Tris-HCl buffer (pH 7.5) to prepare a 20 mM STANA solution.
# Next, 50 μl of the test sample or positive control was mixed with 50 μl of the elastase solution and 50 μl of 0.1% BSA/27 mM CACl2 /133 mM Tris-HCl buffer (pH 7.5). After incubation at 37° C. for 10 minutes, 50 μl of the STANA solution was added to the mixture to start the reaction. The reaction was carried out at 37° C. for 20 minutes and then stopped by adding 50 μl of 50% acetic acid solution to the reaction mixture. Thereafter, absorbance at a wavelength of 405 nm was measured using a spectrophotometer. In this instance, in order to eliminate absorbance of various solutions in the reaction product, a blank solution was prepared by mixing 50 μl of the elastase solution with 50 μl of 50% acetic acid and then with 50 μl of each test sample or the control, 50 μl of 0.1% BSA/27 mM CaCl2 /133 mM Tris-HCl buffer (pH 7.5) and with 50 μl of the STANA solution.
# The results are shown in FIG. 54 and FIG. 55 and FIG. 67 to FIG. 69. In these figures, polypeptide concentration in the reaction solution is expressed as its bovine trypsin-inhibiting activity. Also, remaining human elastase activity was expressed by percentage based on the absorbance of a control reaction mixture in which 50 μl of the 0.1% BSA/27 mM CaCl2 /133 mM Tris-HCl buffer (pH 7.5) was used instead of the test sample or the control.
row,"elastase-inhibiting activity, times higher than that of polypeptide Q19K/Y46D",Molecule
1,about 3 times,B1
2,about 5 times,B2
3,about 3 times,B3
4,about 2 times,B4
5,about 4 times,B5
6,about 10 times,B7

# Same assay, conditions: relative to Q19K/Y46E from E. coli JE5505(pM721)
row,"elastase-inhibiting activity, times higher than that of polypeptide Q19K/Y46E [times]",Molecule
1,6,B6

# Same assay, conditions: relative to control AN68
row,"elastase-inhibiting activity, times higher than that of polypeptide AN68",Molecule
1,about 3 times,B1
2,about 5 times,B2
3,about 3 times,B3
4,about 2 times,B4
5,about 4 times,B5
6,about 5 times,B6
7,about 10 times,B7
